How the values were obtained:
[1] = biological target: T1, P-selectin (PS-Rg) (Homo sapiens, UniProt P16109 P16109:42-321); assay: filter; 37 C
[2] = biological target: T1, P-selectin (PS-Rg); assay: inhibition; sialyl-LewisX; details: tags: human IgG Fc fusion; chain copies: 2 (stated dimer)
Description: The ability of evolved RNA pools or cloned ligands to inhibit the binding of PS-Rg to sialyl-Lewis^x was tested in competitive ELISA assays (C. Foxall et al., 1992, supra). For these assays, the wells of Corning (25801) 96 well microtiter plates were coated with 100 ng of a sialyl-Lewis^x/BSA conjugate, air dried overnight, washed with 300 μl of PBS(−) and then blocked with 1% BSA in HSMC for 60 min at room temperature. RNA ligands were incubated with PS-Rg in HSMC/1% BSA at room temperature for 15 min. After removal of the blocking solution, 50 μl of PS-Rg (10 nM) or a PS-Rg (10 nM)/RNA ligand mix was added to the coated, blocked wells and incubated at room temperature for 60 minutes. The binding solution was removed, wells were washed with 300 μl of PBS(−) and then probed with HRP conjugated anti-human IgG, at room temperature to quantitate PS-Rg binding. After a 30 minute incubation at room temperature in the dark with OPD peroxidase substrate (Sigma P9187), the extent of PS-Rg binding and percent inhibition was determined from the OD₄₅₀.

[3] = biological target: T1, P-selectin (PS-Rg); assay: filter; HSMC; details: tags: human IgG1 Fc fusion; chain copies: dimer
[4] = tags: human IgG Fc fusion, chain copies: 2 (stated dimer)
[5] = tags: human IgG1 Fc fusion, chain copies: dimer, label: 32P

T1 sequence (P16109 42-321, one chain of several): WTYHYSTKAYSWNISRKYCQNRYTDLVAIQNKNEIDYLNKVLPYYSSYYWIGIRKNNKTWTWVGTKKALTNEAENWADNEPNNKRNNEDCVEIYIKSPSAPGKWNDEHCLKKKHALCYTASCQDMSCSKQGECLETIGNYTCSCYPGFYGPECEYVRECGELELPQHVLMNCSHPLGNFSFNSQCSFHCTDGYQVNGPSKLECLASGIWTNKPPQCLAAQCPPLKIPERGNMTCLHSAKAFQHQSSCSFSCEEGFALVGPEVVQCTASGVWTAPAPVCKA

Row | Binder | Kd [1, 4] [nM] | IC50 [2] [nM] | other results
1 | PA447 (ssRNA, 2'-NH2 C and U) RNA: GGGAGACAAGAAUAAACGCUCAAAACAGAACUGAUCGGCGCAGGUUGAUAAAGGGGCAGCGCGAAGAUCACAAUUCGACAGGAGGCUCACAACAGGC | 50 | – | –
2 | PA354 (ssRNA, 2'-NH2 C and U) RNA: GGGAGACAAGAAUAAACGCUCAAGCAAUGGAACGCUAGGAGGGAACAUAAGCAGGGCGAGCGGAGUCGAUAGCUUCGACAGGAGGCUCACAACAGGC | 5 | – | –
3 | PF422 (ssRNA, 2'-F C and U) RNA: GGGAGACAAGAAUAAACGCUCAACGUCAAGCCAGAAUCCGGAACACGCGAGAAAACAAAUCAACGACCAAUCGAUUCGACAGGAGGCUCACAAAGGC | – | 3 | –
4 | PF411 (ssRNA, 2'-F C and U) RNA: GGGAGACAAGAAUAAACGCUCAACAACCCAACCAUCUAGAGCUUCGAACCAUGGUAUACAAGGGAACACAAAAUUCGCGGAGGCUCCAACAGGCGGC | – | 2 | –
5 | PA325 (ssRNA, 2'-NH2 C and U) RNA: GGGAGACAAGAAUAAACGCUCAAACGAGAGCACCAAGGCAACAGAUGCAGAAGAAGUGUGCGCGCGCGAAAUUCGACAGGAGGCUCACAACAGGC | > 10 | – | –
6 | CUCAACGAAUCAGUAAACAUAACACCAUGAAACAUAAAUAGCACGCGAG (ssRNA, 2'-F on all C and U) | – | – | Kd [3]: 0.056 nM
7 | CUCAACGAAUCAGUAAACAUAACACCAUGAAACAUAAAUAGCACGCGAG (ssRNA, 2'-F C and U) | – | 3 | –
8 | PA330 (ssRNA, 2'-NH2 on all C and U) RNA: GGGAGACAAGAAUAAACGCUCAAAACGCACAAAGUAAGGGACGGGAUGGAUCGCCCUAGGCUGGAAGGGAACUUCGACAGGAGGCUCACAACAGGC | – | – | Kd [1, 5]: 0.237 nM
9 | PA318 (ssRNA, 2'-NH2 C and U) RNA: GGGAGACAGAAUAAACGCUCAAAGACCAAGGGACAGCAGCGGGGAAAAACAGAUCACAGCUGUAAGAGGGCUUCGACAGGAGGCUCACAACAGGC | 2 | – | –
10 | PA352 (ssRNA, 2'-NH2 C and U) RNA: GGGAGACAAGAAUAAACGCUCAAGAUCAUCGCAGUAUCGGAAUCGACCCUCAGUGGGUGACAUGCGGACAAGUUCGACAGGAGGCUCACAACAGGC | 6 | – | –
11 | PA342 (ssRNA, 2'-NH2 C and U) RNA: GGGAGACAAGAAUAAACGCUCAACCAACGCGCACCCCGCAGCAAACGAAAUUGGGGAGACAGGUGCAAGACAGUUCGACAGGAGGCUCACAACAGGC | 4 | – | –
12 | PA338 (ssRNA, 2'-NH2 on all C and U) RNA: GGGAGACAAGAAUAAACGCUCAAUCAAGUAAGGAGGAAGGGUCGUGACAGAAAAACGAGCAAAAAACGCGAGUUCGACAGGAGGCUCACAACAGGC | – | – | Kd [1, 5]: 57 nM
13 | PA319 (ssRNA, 2'-NH2 C and U [all C and U 2'-NH2]) RNA: GGGAGACAAGAAUAAACGCUCAAAGUCGGGGAUAGAAACACACUAAGAAGUGCAUCAGGUAGGAGAUAAUUCGACAGGAGGCUCACAACAGGC | 11 | – | –
14 | PA336 (ssRNA, 2'-NH2 C and U) RNA: GGGAGACAAGAAUAAACGCUCAAGAUCAUAACGAGAGGAGAGGGAGAACUACACGCGCGCGAGGAAAGAGUUCGACAGGAGGCUCACAACAGGC | 15 | – | –
15 | PA335 (ssRNA, 2'-NH2 C and U) RNA: GGGAGACAAGAAUAAACGCUCAAUGAUAUACACGUAAGCACUGAACCAGGCUGAGAUCCAUCAGUGCCCAGGUUCGACAGGAGGCUCACAACAGGC | 10.5 | – | –
16 | PA320 (ssRNA, 2'-NH2 C and U) RNA: GGGAGACAAGAAUAAACGCUCAAGAGUAUCACACAAACCGGCACGGACUAAGCAGAAGGAGGUACGGAAGAUUCGACAGGAGGCUCACAACAGGC | 4.5 | – | –
17 | PF380 (ssRNA, 2'-F C and U) RNA: GGGAGACAAGAAUAAACGCUCAACGAGCAAAAGUACUCACGGGACCAGGAGAUCAGCAACACGCGAGACGAAAUUCGACAGGAGGCUCACAACAGGC | – | 4 | –
18 | CUCAACGAGCCAGGACUACGAUCAGCAAACGCGAG (ssRNA, 2'-F on all C and U) | – | – | Kd [3]: 0.22 nM
19 | CUCAACGAGCCAGGACUACGAUCAGCAAACGCGAG (ssRNA, 2'-F C and U) | – | 4 | –
20 | GAAUCCGGAACACGCGAGAAAACAAAUCAACGACCAAUCGAUUCG (ssRNA, 2'-F on all C and U) | – | – | Kd [3]: 1 nM

Row | Binder | Kd [1, 4] [nM] | IC50 [2] [nM] | other results
21 | GAAUCCGGAACACGCGAGAAAACAAAUCAACGACCAAUCGAUUCG (ssRNA, 2'-F C and U) | – | 8 | –
22 | PA315 (ssRNA, 2'-NH2 C and U) RNA: GGGAGACAAGAAUAAACGCUCAAUAACAAAGCAGCAAAGUACCAGAGGAGAGUUGGCAGGGUUUAGGCAGCUUCGACAGGAGGCUCACAACAGGC | 5 | – | –
23 | CUCAACGAGCCAGGAACAUCGACGUCAGCAAACGCGAG (ssRNA, 2'-F C and U) [PF377s1] | – | 2 | –
24 | CUCAACGAGCCAGGAACAUCGACGUCAGCAAACGCGAG (ssRNA, 2'-F C and U; 2'-OMe G 7,9,14 and A 8,15,18,27,31) [PF377M5] | – | 2 | –
25 | CUCAACGAGCCAGGAACAUCGACGUCAGCAAACGCGAG (ssRNA, 2'-F C and U, 5' NH2) [PF377s1-5'NH2] | – | 2 | –
26 | PA463 (ssRNA, 2'-NH2 C and U) RNA: GGGAGACAAGAAUAAACGCUCAAGGGAAACGGAAAGGGACAAGGCGAACAGACGAGAAGUAGACGGAGUAGGAUUCGACAGGAGGCUCACAACAGGC | 8 | – | –
27 | PA351 (ssRNA, 2'-NH2 C and U) RNA: GGGAGACAAGAAUAAACGCUCAAUGAUAGCACAGUGUAUAAGAAAACGCAACACCGCGCGCGGAAAGAGUUCGACAGGAGGCUCACAACAGGC | 2 | – | –
28 | CUCAACGCACCAGGAACAACGAGAACCAUCAGUAAACGCGAG (ssRNA, 2'-F C and U) [PF387s1] | – | 2 | –
29 | CUCAACGCACCAGGAACAACAAGAACCAUCAGUAAGCGCGAG (ssRNA, 2'-F C and U) [PF383s1] | – | 25 | –
30 | PA327 (ssRNA, 2'-NH2 C and U) RNA: GGGAGACAAGAAUAAACGCUCAAUAAGACAACGAACAGACAGAAGCGAAAAAGGGGCGCCGCAGCAACAACAAAUUCGACAGGAGGCUCACAACAGGC | 13.5 | – | –
31 | PA341 (ssRNA, 2'-NH2 on all C and U) RNA: GGGAGACAAGAAUAAACGCUCAAGCCCCAAACGCAAGCGAGCAUCCGCAACAGGGAAGAAGACAGACGAAUGAUUCGACAGGAGGCUCACAACAGGC | – | – | Kd [1, 5]: 0.44 nM
32 | PA477 (ssRNA, 2'-NH2 on all C and U [2'-NH2 on all C and U; n18 in fixed region = G]) RNA: GGGAGACAAGAAUAAACGCUCAAGCCCCAAACGCAAGUGAGCAUCCGCAACAGGGAAGAAGACAGACGAAUGAUUCGACAGGAGGCUCACAACAGGC | – | – | Kd [1, 5]: 0.57 nM
33 | PA341 (ssRNA, 2'-NH2 C and U) RNA: GGGAGACAAGAAUAAACGCUCAAGCCCCAAACGCAAGCGAGCAUCCGCAACAGGGAAGAAGACAGACGAAUGAUUCGACAGGAGGCUCACAACAGGC | – | 3 | –
34 | PF381 (ssRNA, 2'-F C and U) RNA: GGGAGACAAGAAUAAACGCUCAAAGGAUCACACAAACAUCGGUCAAUAAAUAAGUAUUGAUAGCGGGGAUAUUCGACAGGAGGCUCACAACAGGC | – | 1 | –
35 | PA353 (ssRNA, 2'-NH2 C and U) RNA: GGGAGACAAGAAUAAACGCUCAAGUACCGGGAAGGGAUGAACUGGGAUAUGGGAACGGAGGUCAGAGGCACGAUUCGACAGGAGGCUCACAACAGGC | 9 | – | –
36 | PA329 (ssRNA, 2'-NH2 C and U) RNA: GGGAGACAAGAAUAAACGCUCAAGAAGGAUACUUAGGACUACGUGGGAUGGGAUGAAAUGGGAGAACGGGAGUUCGACAGGAGGCUCACAACAGGC | 4 | – | –
37 | PA337 (ssRNA, 2'-NH2 on all C and U) RNA: GGGAGACAAGAAUAAACGCUCAAACAGCUACAAGUGGGACAACAGGGUACAGCGGAGAGAAACAUCCAAACAAGUUCGACAGGAGGCUCACAACAGGC | – | – | Kd [1, 5]: 4.5 nM
38 | PA328 (ssRNA, 2'-NH2 on all C and U [2'-NH2 on all C and U; N83 in fixed region = A]) RNA: GGGAGACAAGAAUAAACGCUCAAGCAAAAGGCGUAAAUACACCUCCGCAACUGGGAAGAAGACGCAGGGACGGUUCGACAGGAGGCUCACAACAGGC | – | – | Kd [1, 5]: 3 nM
39 | PA301 (ssRNA, 2'-NH2 C and U) RNA: GGGAGACAAGAAUAAACGCUCAAACACAAAUCGGGCAGGGACUGGGUUGGGCACGGCAGGGCGCCUUCGACAGGAGGCUCACAACAGGC | 2.5 | – | –

Reference: US20030059769, “High affinity nucleic acid ligands to lectins” (published 2003)
